Patent US5597705

Legend:
[1] = system: thyroid hormone (T3) receptor, GC2 nuclear extract (Rattus norvegicus); test: pulldown; conditions: equilibrium binding constant by ABCD assay; buffer A, poly(dI-dC), 22 C
[2] = system: thyroid hormone (T3) receptor, GC2 nuclear extract (Rattus norvegicus); test: cell_activity; conditions: G29TK one copy, T3 stimulation of CAT in GC2 cells; three copies five-fold
[3] = system: glucocorticoid receptor alpha (hGR, pRShGR-alpha) (Homo sapiens); test: cell_activity; conditions: CAT activity with DEX in CV-1 cells; wild-type reference

Work on G209-146 (rat GH -209 to -146) yielded a Kd [1] of 1.4 nM.
For G186-158 (rat GH -186 to -158), the activity [2] was 2.9 fold.
MMTV LTR (GMCAT) gave an activity [3] of 100%.
